This note sets out measurements from patent CN110256561A (DONGDA BIOLOGY TECH SUZHOU CO LTD, dated 2019).

Assay [1] concerns the target T1, 293T-CTLA-4细胞 (human CTLA-4 on 293T cells) (human, UniProt P16410 36-223).
T1 construct: whole, on cells; also called 人CTLA-4
T1 sequence (looked up): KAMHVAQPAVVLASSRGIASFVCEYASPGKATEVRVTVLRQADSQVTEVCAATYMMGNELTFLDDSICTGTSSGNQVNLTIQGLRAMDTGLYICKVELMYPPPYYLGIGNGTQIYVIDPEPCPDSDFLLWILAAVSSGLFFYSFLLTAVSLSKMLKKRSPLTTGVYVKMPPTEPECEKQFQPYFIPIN
As to the kind of experiment: FACS on 293T-CTLA-4 cells.

Assay [2] has as its target T1, 293T-CTLA-4细胞 (human CTLA-4 on 293T …). Put plainly: competition FACS on 293T-CTLA-4 cells, competitor CD80-biotin; the lowest, tied by Table 8 to 3D2A10.
Assay [3] has as its target T2, CTLA-4-hFc蛋白 (human CTLA-4 fused to human Fc) (human, UniProt P16410 36-161, limits assumed).
T2 construct: Coated on ELISA plates; also called CTLA-4-Fc; not shown: human Fc (hFc)
T2 sequence (looked up): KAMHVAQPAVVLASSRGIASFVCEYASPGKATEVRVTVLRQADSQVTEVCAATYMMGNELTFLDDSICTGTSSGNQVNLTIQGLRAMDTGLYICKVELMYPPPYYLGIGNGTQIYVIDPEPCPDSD
Put plainly: competition ELISA, CTLA-4-hFc coated, competitor CD80-biotin; the lowest, tied by Table 6 to 3D2A10. (In an ELISA, binding on a coated surface is turned into a signal by an enzyme label.)

The target of assay [4] is T2, CTLA-4-hFc蛋白 (human CTLA-4 fused to …). As to the kind of experiment: competition ELISA, CTLA-4-hFc coated, competitor CD80-biotin.
Assay [5] concerns the target T1, 293T-CTLA-4细胞 (human CTLA-4 on 293T …). As to the kind of experiment: competition FACS on 293T-CTLA-4 cells, competitor CD80-biotin.
Assay [6] concerns the target T2, CTLA-4-hFc蛋白 (human CTLA-4 fused to …). As to the kind of experiment: ELISA, CTLA-4-hFc coated; low end of the group's range, tied by Table 5 to 3D2A10.
Assay [7] has the same target. As to the kind of experiment: ELISA, CTLA-4-hFc coated.
For assay [8], the target named is T1, 293T-CTLA-4细胞 (human CTLA-4 on 293T …). As to the kind of experiment: FACS on 293T-CTLA-4 cells; the lowest, tied by Table 7 to 10F8D1.

B1: 3D2A10人源化抗体 (humanized CTLA-4 antibody 3D2A10, IgG1) (antibody, V domains shown)
VH: QVTLKESGPVLVKPTETLTLTCTVSGFSLTNYAVHWIRQPPGKALEWLGVIWSGGYIDYNAVFISRLTISKDNSKSQAVLTMTNMDPVDTATYYCARSGETGTYYFDYWGQGTLVTVSS
VL: EIVMTQSPATLSVSPGERATLSCRASENIYSYLAWYQQKPGQAPRLLVYSATKLANGIPARFSGSGSGTEYTLTISSLQSEDFAVYYCQHFWGTPWTFGGGTKVEIKR
notes: Humanized by CDR grafting with back mutations, built as IgG1, made in 293 cells; also called 人源化CTLA-4抗体3D2A10
As a reminder, the EC50 is the concentration that produces a half-maximal response. Usually IC50 stands for the point on the concentration scale where inhibition reaches its midpoint. Read a low IC50 as higher potency. For the molecule B1, the values for the EC50 in assay [1], in assay [6] and in assay [7] were 0.0788 µg/mL, 0.001 µg/mL and 0.0012 µg/mL, respectively. The concentration for half-maximal inhibition (IC50) in assay [2] was less than 0.7 µg/mL; in assay [3], less than 0.36 µg/mL; in assay [4], 0.352 µg/mL; in assay [5] it was 0.696 µg/mL.

B2: 10F8D1人源化抗体 (humanized CTLA-4 antibody 10F8D1, IgG1) (antibody, V domains shown)
VH: QVQLVQSGAEVKKPGASVKVSCKASGYTFTNYWMHWVRQAPGQGLEWIGYINPTTTYTNYNQKFKDRATLTADKSISTAYMELSRLRSDDTAVYYCATTAQATGYGMDFWGQGTLVTVSS
VL: DIVMTQSPDSLAVSLGERATINCKSTQSLLNSGNQRNYLTWYQQKPGQPPKLLIYWASTRESGVPDRFSGSGSGTDFTLTISSLQAEDVAVYYCQNDYSFPLTFGQGTKLEIKR
notes: Humanized by CDR grafting with back mutations, built as IgG1, made in 293 cells; also called 人源化CTLA-4抗体10F8D1
With B2, the concentration giving a half-maximal response (EC50) is less than 0.024 µg/mL in assay [8], 0.0231 µg/mL in assay [1] and 0.00149 µg/mL in assay [7]. Also, the IC50 in assay [4] amounted to 0.388 µg/mL; in assay [5], 1.66 µg/mL.
